± gives the standard error. For some of these results: Variants at the floor of the assay were thinned out.
B1: glmS ribozyme (parent)
chain: AUAAAAGCGCCAGAACUACAGAAAUGUAGUUGACGAGGAGGAGGUUUAUCGAAUUUUCGGCGGAUGCCUCCAAA

Assays:
Conditions in all cases: with glucosamine-6-phosphate
glucosamine-6-phosphate [1] = variants of: B1; assay: kcat; higher = faster cleavage; RNA array
Method in brief: (§1)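 E. coli RNA polymerase transcribed barcoded ribozyme variants in situ on sequenced MiSeq chips, which were tracked via a hybridised Cy3 probe at 37 °C. Tiles were imaged over ~14 h after glucosamine-6-phosphate (40 μM to 10 mM) in HEPES/KCl/Mg(OAc)2 buffer was flowed in. Normalised per-tile medians were fit to one- or two-exponential decays for kobs, and kcat and KM came from weighted Michaelis–Menten fits.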

glucosamine-6-phosphate [2] = variants of: B1; assay: self-cleavage kobs at 40 uM GlcN6P; higher = faster cleavage; RNA array
Method in brief: as §1

glucosamine-6-phosphate [3] = variants of: B1; assay: self-cleavage kobs at 160 uM GlcN6P; higher = faster cleavage; RNA array
Method in brief: as §1

glucosamine-6-phosphate [4] = variants of: B1; assay: self-cleavage kobs at 640 uM GlcN6P; higher = faster cleavage; RNA array
Method in brief: as §1

glucosamine-6-phosphate [5] = variants of: B1; assay: self-cleavage kobs at 2500 uM GlcN6P; higher = faster cleavage; RNA array
Method in brief: as §1

glucosamine-6-phosphate [6] = variants of: B1; assay: self-cleavage kobs at 10000 uM GlcN6P; higher = faster cleavage; RNA array
Method in brief: as §1

glucosamine-6-phosphate [7] = variants of: B1; assay: KM; higher = weaker cofactor use; RNA array
Method in brief: as §1

| Variant | kcat (glucosamine-6-phosphate [1]) | self-cleavage kobs at 40 uM GlcN6P (glucosamine-6-phosphate [2]) | self-cleavage kobs at 160 uM GlcN6P (glucosamine-6-phosphate [3]) | self-cleavage kobs at 640 uM GlcN6P (glucosamine-6-phosphate [4]) | self-cleavage kobs at 2500 uM GlcN6P (glucosamine-6-phosphate [5]) | self-cleavage kobs at 10000 uM GlcN6P (glucosamine-6-phosphate [6]) | KM (glucosamine-6-phosphate [7]) |
| --- | --- | --- | --- | --- | --- | --- | --- |
| AUAAAAGCGCCCGAACUACAGAAAUGUAGUUGACGAGGAGGAGGUUAAUCGAAUUUUCGACGGAUGCCUCCAAA [A12C U47A G60A] | < 1e-05 s⁻¹ |  |  |  |  |  |  |
| AUAAAAGCGCCAGAACUACAGAAAUGUAGUCGACGAGGAGGAGGUUUAUCGAAUUUUCGGCGGGUGCCUCCAAA [U31C A64G] | 0.00541 ± 0.0022 s⁻¹ | 7.83e-05 ± 1.1e-05 s⁻¹ | 0.000159 ± 2.1e-05 s⁻¹ | 0.00109 ± 0.00013 s⁻¹ | 0.00224 ± 0.00024 s⁻¹ | 0.00363 ± 0.00047 s⁻¹ |  |
| AUAAAAGCGCCAGAACUACAGAAAUGUAGUUGACGAGGAGGAGGUUUAUCGAAUUUUCGGCGGAUCCCUCGAAA [G66C C71G] | 4.2e-05 ± 2.4e-06 s⁻¹ |  |  | 4e-05 ± 1.4e-05 s⁻¹ | 4.07e-05 ± 1.1e-05 s⁻¹ | 3.81e-05 ± 1.5e-05 s⁻¹ | 108 ± 50 µM |
| AUAAAAGCGCCAGAACUACAGAAAUGUAGUUAACGAGGAGGAGGUUUAUCGAAUUUUCGGCGGAUGCCACCAAA [G32A U69A] | 9.02e-05 ± 2.8e-05 s⁻¹ |  |  |  | 9.73e-05 ± 1.8e-05 s⁻¹ | 7.45e-05 ± 1.1e-05 s⁻¹ |  |
| AUAAAAGCGCCAGAAAUACAGAAAUGUAGUUGACGAGGAGGCGGUUUAUCGAAUUUUCGGCGGAUGCCUCCAAA [C16A A42C] | < 1e-05 s⁻¹ | < 1e-05 s⁻¹ | < 1e-05 s⁻¹ |  | < 1e-05 s⁻¹ | < 1e-05 s⁻¹ |  |
| AUAAAAGCGCCAGAACUACAGAAAUGUAGUUGACGAGGAGGAGGUUUAUCGUAGUUUCGGCGGAUGCCUCCAAA [A52U U54G] | 0.000276 ± 3.6e-05 s⁻¹ |  |  | 4.52e-05 ± 9.2e-06 s⁻¹ | 0.000107 ± 1e-05 s⁻¹ | 0.000207 ± 2.8e-05 s⁻¹ | 3750 ± 860 µM |
| AUAAAAGCGCCAGAACUACAGAAAUGUAGUUGACGAGGAGGGGGUUUAUCGAAUUUUCGGCGGAUGCCUACAAA [A42G C70A] | 0.000182 ± 4.2e-05 s⁻¹ | 4.72e-05 ± 8.8e-06 s⁻¹ | 6.35e-05 ± 1.1e-05 s⁻¹ | 0.000154 ± 1.6e-05 s⁻¹ | 0.000325 ± 3.7e-05 s⁻¹ | 0.000155 ± 1.5e-05 s⁻¹ |  |
| AUAAAAGCGCCAGAACUACAGAAAUGUAUUUGACGAGGAGGAGGUUUAUCGAAUUUUCGGCGGAUGCUUCCAAA [G29U C68U] | 0.0008 ± 6.2e-05 s⁻¹ | 2.51e-05 ± 1e-05 s⁻¹ | 6.87e-05 ± 1e-05 s⁻¹ | 0.00022 ± 2.5e-05 s⁻¹ | 0.000435 ± 5.5e-05 s⁻¹ | 0.000719 ± 7.8e-05 s⁻¹ | 1710 ± 230 µM |
| AUAAAAGCGCAAAAACUACAGAAAUGUAGUUGACGAGGAGGAGGUUUAUCGAAUUUUCGGCGGAUGCCUCCAAA [C11A G13A] | < 1e-05 s⁻¹ | < 1e-05 s⁻¹ |  |  |  |  |  |
| AUAAAAGCGCCAGAACUACAGAAAUGUAGUUGACGAAGAGGAGGUUUAUCGAAUUUUCGGCGGGUGCCUCCAAA [G37A A64G] | 0.00317 ± 0.0014 s⁻¹ | 6.01e-05 ± 1.3e-05 s⁻¹ | 5.16e-05 ± 2.1e-05 s⁻¹ | 0.000337 ± 6.8e-05 s⁻¹ | 0.000977 ± 0.00019 s⁻¹ | 0.002 ± 0.00025 s⁻¹ |  |
| AUAAAAGCGCCAGAACUACAGAAAUGUAGUUGACGCGGAGGAGGUUUAUCGAAUUUUCGGCGGUUGCCUCCAAA [A36C A64U] | 1.13e-05 ± 3.6e-06 s⁻¹ | < 1e-05 s⁻¹ |  | < 1e-05 s⁻¹ |  |  |  |
| AUAAAAGCGCCAGAGCUACAGAAAUGUAGUUGACGAGGAGGAGGUUUAUCGAAUUUUCGGCGGAUGCCGCCAAA [A15G U69G] | 7.83e-05 ± 1.2e-05 s⁻¹ | 3.29e-05 ± 1.2e-05 s⁻¹ | 5.34e-05 ± 2.7e-05 s⁻¹ | 6.2e-05 ± 1.2e-05 s⁻¹ | 0.00012 ± 1.7e-05 s⁻¹ | 7.05e-05 ± 9.2e-06 s⁻¹ |  |
| AUAAAAGCGCCAGAGCUACAGAAAUGUACUUGACGAGGAGGAGGUUUAUCGAAUUUUCGGCGGAUGCCUCCAAA [A15G G29C] | 0.00276 ± 0.00064 s⁻¹ | 3.64e-05 ± 1.1e-05 s⁻¹ | 0.000187 ± 5.3e-05 s⁻¹ | 0.000327 ± 7.2e-05 s⁻¹ | 0.00156 ± 0.00032 s⁻¹ | 0.002 ± 0.00023 s⁻¹ | 3540 ± 1400 µM |
| AUAAAAGAGCCAGAACUACAGAAAUGUAGUUGACGAGGAGGAGGUUUACCGAAUUUUCGGCGGAUGCCUCCAAA [C8A U49C] | < 1e-05 s⁻¹ |  |  | < 1e-05 s⁻¹ | < 1e-05 s⁻¹ |  |  |
| AUAAAAGCGCCAGAACUACAGAAAUGUAGUUGACGAGGAGGAGGUUUAUCGGUUUUUCGGCGGAUGCCUCCAAA [A52G A53U] | 0.000266 ± 2.2e-05 s⁻¹ |  |  | 6.4e-05 ± 1.5e-05 s⁻¹ | 0.000176 ± 3.4e-05 s⁻¹ | 0.000219 ± 2.3e-05 s⁻¹ | 1900 ± 430 µM |
| AUAAAAGCGCCAGAACUACAGAAAUGUAGUUGACGAGGAGGAGGUUUAUUGAAUUUUCGGGGGAUGCCUUCAAA [C50U C61G C70U] | 1.56e-05 ± 2.6e-06 s⁻¹ |  |  |  |  |  |  |
| AUAAAAGCGCCUGAACUACAGAAAUGUAGUUGACGAGGAGGAGGUUUAUCGAAUUUUCGGCGGAUGCCUUCAAA [A12U C70U] | 0.00743 ± 0.0034 s⁻¹ | 0.00232 ± 0.00023 s⁻¹ | 0.0134 ± 0.0027 s⁻¹ | 0.0108 ± 0.0021 s⁻¹ | 0.0055 ± 0.0012 s⁻¹ |  |  |
